Several values for one entry are separate records, joined by “and”; a condition that tells them apart may be missing. Identical values can stand only once.
B1: antibody 158 (antibody, V domains shown)
VH: EVQLLESGGDLIQPGGSLRLSCAASGVTVSSNYMSWVRQAPGKGLEWVSIIYPGGSTFYADSVKGRFTISRDNSKNTLYLQMHSLRAEDTAVYYCARDLGSGDMDVWGKGTTVTVSS
VL: DIVMTQSPSFLSASVGDRVTITCRASQGISSYLAWYQQKPGKAPKLLIQAASTLQSGVPSRFSGSGSGTEFTLTISSLQPEDFATYYCQQLNSYRYTFGQGTKVEIK
notes: also called mAb 158
B2: Fab of antibody 159 (Fab, V domains shown)
VH: EVQLVESGGGVVQPGRSLRLSCAASGFTFSSYGMHWVRQAPGKGLEWVALISYDGGNRYYADSVKGRFTISRDNSKNTLYLQMNRLRAEDTAMYYCAKDRDDGWDWYYFMDVWGKGTTVTVSS
VL: DIQLTQSPGTLSLSPGERATLSCRASQSISGNYLAWYQHKPGQAPRLLIYGASTRATGIPDRFSGSGSGTDFTLTISRLEPEDFAVYYCQQYGSSYTFGQGTKVEIK
B3: antibody 269 (antibody, V domains shown)
VH: QVQLVESGGGLIQPGGSLRLSCAASGLTVNRNYMSWIRQAPGKGLEWVSVIYSGGSTFYADSVKGRFTISRDNSKNTLSLQMNSLRAEDTAIYYCARDFYEGSFDIWGQGTMVTVSS
VL: AIQLTQSPSFLSASIGDRVTITCRASQGISSYLAWYQQKPGKAPKLLIYAASTLQSGVPSRFSGSGSGTEFTLTISSLQPEDFASYYCQQLNSYPAPVFGPGTKVDIK
notes: also called mAb 269
B4: antibody 175 (antibody, V domains shown)
VH: EVQLVESGGGLIQPGGSLRLSCAASGLTVSRNYMSWVRQAPGKGLEWVSLIYSGGSTYYADSVKGRFTISRDNSKNTLYLQMNSLRAEDTAVYYCARDLRGEVWGQGTMVTVSS
VL: not shown
notes: also called mAb 175
B5: antibody 58 (antibody, V domains shown)
VH: QVQLVESGGGLVQPGRSLRLSCAASGFTFDDYAMHWVRQPPGKGLEWVSGVSWNSGTIGYADSVKGRFIISRDNAKNSLYLQMNSLKAEDTALYYCAREVGGTFGVLISREGGLDYWGQGTLVTVSS
VL: SYELTQPPSVSVAPGQTARITCGGNTIGSKSVHWYQQRPGQAPVLVVYDDSDRPSGIPERFSGSNSGNTATLTISRVEAGDEADYYCQVWDSSSDRVVFGGGTKLTVL
notes: also called mAb 58
B6: antibody 318 (antibody, V domains shown)
VH: QVQLVQSGPEVKKPGTSVKVSCKASGFTLTSSAMQWVRQARGQRLEWIGWIVVGSGNTNYAQKFQERVTITRDMSTSTAYMELSSLRSEDTAVYYCAAGRGYNSDFDYWGQGTLVTVSS
VL: AIRMTQSPGTLSLSPGERATLSCRASQSVSSSYLAWYQQRPGQAPRLLIYGTSSRATGIPDRFSGSGSGTDFTLTISRLEPEDFAVYYCQQYGYSVYTFGQGTKVDIK
notes: also called mAb 318
B7: antibody 281 (antibody, V domains shown)
VH: QVQLVESGGGLVQPGGSLRLSCAASGFPFSIYWMSWVRQAPGKGLEWVANIKQDGSEKYYVDSVKGRFTISRDNAKNSLYLHMNSLRGEDTAVYYCASRYYDFRPEAWFDYWGQGTLVTVSS
VL: not shown
B8: antibody 222 (antibody, V domains shown)
VH: EVQLVESGGGLIQPGGSLRLSCAASGLTVSSNYMSWVRQAPGKGLEWVSVIYSGGSTFYADSVKGRFTISRDNSKNTLYLQMNSLGAEDTAVYYCARGEGSPGNWFDPWGQGTLVTVSS
VL: DVVMTQSPGTLSLSPGERATLSCRASQSVPSSYLAWYQQKPGQAPRLLIYGASTRATGIPDRFSGSGSGTDFTLTISRLEPEDFAVYYCQHYDTSPRFGGGTKVDIK

What was measured:
[1] = target: spike protein of SARS-CoV-2 strain B.1.351 (SARS-CoV-2, UniProt P0DTC2 14-1273); assay: cell-based or functional assay
[2] = target: spike protein of SARS-CoV-2 strain P.1 (SARS-CoV-2, UniProt P0DTC2 14-1273); assay: cell-based or functional assay
[3] = target: spike protein of SARS-CoV-2 strain B.1.1.7 (SARS-CoV-2, UniProt P0DTC2 14-1273); assay: cell-based or functional assay
[4] = target: spike protein of SARS-CoV-2 strain Victoria (SARS-CoV-2/human/AUS/VIC01/2020) (SARS-CoV-2, UniProt P0DTC2 14-1273); assay: cell-based or functional assay
[5] = target: T1, SARS-CoV-2 spike protein on authentic virus, strain SARS-CoV-2/human/AUS/VIC01/2020 (Victoria) (SARS-CoV-2, UniProt P0DTC2 14-1273); assay: whole-virus capture ELISA, half-maximal binding
T1 construct: whole, on cells

Binder	IC50 (FRNT neutralisation) [1]	IC50 (FRNT neutralisation) [2]	IC50 (FRNT neutralisation) [3]	IC50 (FRNT neutralisation) [4]	Kd [5] [nM]
B1	> 10 µg/mL	> 10 µg/mL	0.254 µg/mL	0.031 µg/mL	–
B2	–	–	–	–	0.29
B3	> 10 µg/mL	> 10 µg/mL	> 10 µg/mL	0.03 µg/mL	–
B4	> 10 µg/mL	3.88 µg/mL	0.575 µg/mL	0.026 µg/mL	–
B5	0.136 µg/mL	0.236 µg/mL	0.116 µg/mL	0.041 µg/mL	–
B6	0.019 µg/mL	0.083 µg/mL	0.185 µg/mL	0.029 µg/mL	–
B7	> 10 µg/mL	> 10 µg/mL	0.012 µg/mL	0.005 µg/mL	–
B8	0.017 µg/mL and 0.016 µg/mL	0.008 µg/mL and 0.009 µg/mL	0.014 µg/mL and 0.011 µg/mL	0.019 µg/mL and 0.017 µg/mL	–
